In patent US6528295:

Molecular target: methylated PP2A C subunit (epitope-tagged, immunoprecipitated), P67775
Sequence (P67775 whole entry): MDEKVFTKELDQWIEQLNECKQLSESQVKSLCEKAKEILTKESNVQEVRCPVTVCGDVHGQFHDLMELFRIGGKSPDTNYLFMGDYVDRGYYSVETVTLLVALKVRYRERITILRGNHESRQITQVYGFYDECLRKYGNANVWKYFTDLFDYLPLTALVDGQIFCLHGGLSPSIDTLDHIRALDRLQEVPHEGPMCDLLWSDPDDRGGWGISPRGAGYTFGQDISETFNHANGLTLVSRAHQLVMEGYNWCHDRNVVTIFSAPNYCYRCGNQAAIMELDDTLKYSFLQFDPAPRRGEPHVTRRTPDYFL

B1: recombinant human Protein Phosphatase Methylesterase-1 (PME-1) (protein)
chain: MSALEKSMHLGRLPSRPPLPGSGGSQSGAKMRMGPGRKRDFSPVPWSQYFESMEDVEVENETGKDTFRVYKSGSEGPVLLLLHGGGHSALSWAVFTAAIISRVQCRIVALDLRSHGETKVKNPEDLSAETMAKDVGNVVEAMYGDLPPPIMLIGHSMGGAIAVHTASSNLVPSLLGLCMIDVVEGTAMDALNSMQNFLRGRPKTFKSLENAIEWSVKSGQIRNLESARVSMVGQVKQCEGITSPEGSKSIVEGIIEEEEEDEEGSESISKRKKEDDMETKKDHPYTWRIELAKTEKYWDGWFRGLSNLFLSCPIPKLLLLAGVDRLDKDLTIGQMQGKFQMQVLPQCGHAVHEDAPDKVAEAVATFLIRHRFAEPIGGFQCVFPGC
PP2A methylesterase activity: demethylation of immunoprecipitated C subunit, immunoblot with methylation-sensitive antibody 4b7: human PME-1 is a PP2A methylesterase | amount of 3H-methyl groups remaining on C subunit after 1 h at 32° C., SDS-PAGE: PME-1 was clearly able to demethylate PP2A C subunit as measured by this assay | methylesterase activity towards PP2A C subunit: lysates of bacteria expressing PME-1 contain a PP2A methylesterase activity not found in bacterial lysates lacking PME-1 | signal of the antibody that only recognizes unmethylated PP2A against a methylation-insensitive antibody, immunoblot: PME-1 was clearly able to demethylate PP2A C subunit, as measured by this assay
